The source of these data is patent US20170247437A1 (ONCOMED PHARMACEUTICALS, published 2017).

In experiment [1] the target is FLAG-RSPO1furin-CD4TM-GFP (human) (UniProt Q2MKA7). As to the kind of experiment: FACS on HEK-293 cells transiently expressing FLAG-RSPO1furin-CD4TM-GFP; secondary APC-conjugated anti-IgG alone, no primary antibody.
In experiment [2] the target is T1, recombinant human RSPO1 (R&D Systems) (human, UniProt Q2MKA7 21-263).
T1 construct: Bought protein
The experiment can be described thus: ELISA on plate-coated recombinant human RSPO1, anti-human IgG Fc-HRP detection, 4-parameter fit, 3 runs. On the procedure:
High binding 96 well plates (Nalge Nunc International) were coated with […] recombinant human RSPO1 (R&D Systems) in coating buffer (1× PBS, pH 7.4) overnight at 2-8° C. The plates were washed 3-6 times after each step with 300 μl/well of 1× PBS, 0.05% Tween-20, pH 7.4. After coating, the plates were incubated with 250 μl/well of blocking buffer (1× PBS, 0.1% gelatin, 0.1% TWEEN-20, pH 7.4) for 60 minutes ±10 minutes at room temperature (19-25° C.). Plates were washed and incubated with 100 μl/well of first generation humanized anti-RSPO1 antibody h89M5-H2L2 and second generation humanized antibody h89M5-H8L5 for 120 minutes ±10 minutes at room temperature. First generation humanized anti-RSPO1 antibody h89M5-H2L2 was use as the reference standard and the positive control. The antibodies were prepared at an initial concentration of 2.5 μg/ml and diluted 3-fold serially, ranging from 2.5 μg/ml to […]. Each sample was tested in duplicate and the experiment was run 3 times. […] The binding of the antibodies to RSPO1 was measured by absorbance at 450 nm and 650 nm using an ELISA plate reader (Molecular Devices). The results were analyzed using a 4-parameter curve fit, and relative binding potency was determined by comparing EC₅₀ values of the reference to that of the samples.
For orientation: In an ELISA, binding on a coated surface is turned into a signal by an enzyme label.

Chain of FLAG-RSPO1furin-CD4TM-GFP (human) (Q2MKA7 34-135): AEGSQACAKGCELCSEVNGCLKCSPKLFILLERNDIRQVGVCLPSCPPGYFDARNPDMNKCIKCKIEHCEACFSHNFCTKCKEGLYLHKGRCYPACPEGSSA
T1 sequence (Q2MKA7 21-263 limits assumed): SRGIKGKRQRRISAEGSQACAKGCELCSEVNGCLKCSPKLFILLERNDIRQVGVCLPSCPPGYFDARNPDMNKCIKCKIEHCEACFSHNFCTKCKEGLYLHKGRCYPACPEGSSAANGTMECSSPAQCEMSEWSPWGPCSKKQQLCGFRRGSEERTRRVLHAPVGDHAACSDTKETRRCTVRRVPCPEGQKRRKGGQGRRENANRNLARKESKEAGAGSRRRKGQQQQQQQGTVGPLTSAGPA

In experiment [1], Secondary Ab Control (antibody) registered an MFI of 3.2.

B1: second generation humanized anti-RSPO1 antibody h89M5-H8L5 (antibody, human IgG1, kappa, V domains shown)
VH: EVQLVQSGAEVKKPGESLRISCKGSGYSFTGYTMHWVRQMPGKGLEWMGGINPNNGGTTYNQNFKGHVTISADKSISTAYLQWSSLKASDTAMYYCARKEFSDGYYFFAYWGQGTLVTVSS
VL: DIVMTQSPDSLAVSLGERATINCKASQDVIFAVAWYQQKPGQPPKLLIYWASTRHTGVPDRFSGSGSGTDFTLTISSLQAEDVAVYYCQQHYSTPWTFGGGTKVEIKR
notes: Humanized version of mouse antibody 89M5, with the same CDRs as h89M5-H2L2; also called h89R5-H8L5
As for B1, the “mean relative binding potency (EC50 against reference h89M5-H2L2)” value in experiment [2] was 120%.
